We go through seven variants from IntAct's records for PubMed 25910212.

To fix the notation:
B1: Progranulin (Homo sapiens), P28799 (parent)
chain: MWTLVSWVALTAGLVAGTRCPDGQFCPVACCLDPGGASYSCCRPLLDKWPTTLSRHLGGPCQVDAHCSAGHSCIFTVSGTSSCCPFPEAVACGDGHHCCPRGFHCSADGRSCFQRSGNNSVGAIQCPDSQFECPDFSTCCVMVDGSWGCCPMPQASCCEDRVHCCPHGAFCDLVHTRCITPTGTHPLAKKLPAQRTNRAVALSSSVMCPDARSRCPDGSTCCELPSGKYGCCPMPNATCCSDHLHCCPQDTVCDLIQSKCLSKENATTDLLTKLPAHTVGDVKCDMEVSCPDGYTCCRLQSGAWGCCPFTQAVCCEDHIHCCPAGFTCDTQKGTCEQGPHQVPWMEKAPAHLSLPDPQALKRDVPCDNVSSCPSSDTCCQLTSGEWGCCPIPEAVCCSDHQHCCPQGYTCVAEGQCQRGSEIVAGLEKMPARRASLSHPRDIGCDQHTSCPVGQTCCPSLGGSWACCQLPHAVCCEDRQHCCPAGYTCNVKARSCEKEVVSAQPATFLARSPHVGVKDVECGEGHFCHDNQTCCRDNRQGWACCPYRQGVCCADRRHCCPAGFRCAARGTKCLRREAPRWDAPLRDPALRQLL
partner: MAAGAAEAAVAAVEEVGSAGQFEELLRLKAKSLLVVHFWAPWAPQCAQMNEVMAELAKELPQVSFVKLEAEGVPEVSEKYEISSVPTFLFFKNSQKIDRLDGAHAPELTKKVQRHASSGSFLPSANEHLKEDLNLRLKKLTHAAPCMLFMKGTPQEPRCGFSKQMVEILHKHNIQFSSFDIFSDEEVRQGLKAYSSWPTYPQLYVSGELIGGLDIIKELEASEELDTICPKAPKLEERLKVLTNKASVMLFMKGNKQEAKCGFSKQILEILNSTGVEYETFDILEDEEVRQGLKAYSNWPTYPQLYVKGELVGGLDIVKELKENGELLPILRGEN
B2: Acetylcholine receptor subunit gamma (Homo sapiens), P07510-2 (parent)
chain: MHGGQGPLLLLLLLAVCLGAQGRNQEERLLADLMQNYDPNLRPAERDSDVVNVSLKLTLTNLISLNEREEALTTNVWIEMQWCDYRLRWDPRDYEGLWVLRVPSTMVWRPDIVLENKSQTYSTNEIDLQLSQEDGQTIEWIFIDPEAFTENGEWAIQHRPAKMLLDPAAPAQEAGHQKVVFYLLIQRKPLFYVINIIAPCVLISSVAILIHFLPAKAGGQKCTVAINVLLAQTVFLFLVAKKVPETSQAVPLISKYLTFLLVVTILIVVNAVVVLNVSLRSPHTHSMARGVRKVFLRLLPQLLRMHVRPLAPAAVQDTQSRLQNGSSGWSITTGEEVALCLPRSELLFQQWQRQGLVAAALEKLEKGPELGLSQFCGSLKQAAPAIQACVEACNLIACARHQQSHFDNGNEEWFLVGRVLDRVCFLAMLSLFICGTAGIFLMAHYNRVPALPFPGDPRPYLPSPD
partner: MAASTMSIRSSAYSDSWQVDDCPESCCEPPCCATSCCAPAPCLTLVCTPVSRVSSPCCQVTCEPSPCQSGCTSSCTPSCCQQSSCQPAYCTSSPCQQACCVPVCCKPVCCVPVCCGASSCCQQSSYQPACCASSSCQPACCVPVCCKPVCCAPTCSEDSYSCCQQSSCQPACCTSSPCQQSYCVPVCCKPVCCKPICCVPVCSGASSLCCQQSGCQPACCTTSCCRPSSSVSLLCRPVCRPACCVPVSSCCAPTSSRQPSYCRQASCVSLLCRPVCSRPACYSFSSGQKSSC
B3: Zinc finger protein 41 (Homo sapiens), P51814-6 (parent)
chain: MAANGDSPPWSPALAAEGRGSSCEASVSFEDVTVDFSKEEWQHLDPAQRRLYWDVTLENYSHLLSVGYQIPKSEAAFKLEQGEGPWMLEGEAPHQSCSGEAIGKMQQQGIPGGIFFHCERFDQPIGEDSLCSILEELWQDNDQLEQRQENQNNLLSHVKVLIKERGYEHKNIEKIIHVTTKLVPSIKRLHNCDTILKHTLNSHNHNRNSATKNLGKIFGNGNNFPHSPSSTKNENAKTGANSCEHDHYEKHLSHKQAPTHHQKIHPEEKLYVCTECVMGFTQKSHLFEHQRIHAGEKSRECDKSNKVFPQKPQVDVHPSVYTGEKPYLCTQCGKVFTLKSNLITHQKIHTGQKPYKCSECGKAFFQRSDLFRHLRIHTGEKPYECSECGKGFSQNSDLSIHQKTHTGEKHYECNECGKAFTRKSALRMHQRIHTGEKPYVCADCGKAFIQKSHFNTHQRIHTGEKPYECSDCGKSFTKKSQLHVHQRIHTGEKPYICTECGKVFTHRTNLTTHQKTHTGEKPYMCAECGKAFTDQSNLIKHQKTHTGEKPYKCNGCGKAFIWKSRLKIHQKSHIGERHYECKDCGKAFIQKSTLSVHQRIHTGEKPYVCPECGKAFIQKSHFIAHHRIHTGEKPYECSDCGKCFTKKSQLRVHQKIHTGEKPNICAECGKAFTDRSNLITHQKIHTREKPYECGDCGKTFTWKSRLNIHQKSHTGERHYECSKCGKAFIQKATLSMHQIIHTGKKPYACTECQKAFTDRSNLIKHQKMHSGEKRYKASD

The first assay covers variants of B1. To be noted: with glrx3_human GLRX3, O76003.
As for MWTLVSWVALTAGLVAGTRCPDGQFCPVACCLDPGGASYSCCRPLLDKWPTTLSRHLGGPCQVDAHCSAGHSCIFTVSGTSSCCPFPEAVACGDGHHCCPRGFHCSADGRSCFQRSGNNSVGAIQCPDSQFECPDFSTCCVMVDGSWGCCPMPQASCCEDRVHCCPHGAFCDLVHTRCITPTGTHPLAKKLPAQRTNRAVALSSSVMCPDARSRCPDGSTCCELPSGKYGCCPMPNATCCSDHLHCCPQDTVCDLIQSKCLSKENATTDLLTKLPAHTVGDVKCDMEVSCPDGYTCCRLQSGAWGCCPFTQAVCCEDHIHCCPAGFTCDTQKGTCEQGPHQVPWMEKAPAHLSLPDPQALKRDVPCDNVSSCPSSDTCCQLTSGEWGCCPIPEAVCCSDHQHCCPQGYTCVAEGQCQRGSEIVAGLEKMPACRASLSHPRDIGCDQHTSCPVGQTCCPSLGGSWACCQLPHAVCCEDRQHCCPAGYTCNVKARSCEKEVVSAQPATFLARSPHVGVKDVECGEGHFCHDNQTCCRDNRQGWACCPYRQGVCCADRRHCCPAGFRCAARGTKCLRREAPRWDAPLRDPALRQLL [R432C], the “effect of a mutation on the interaction” value is recorded as “disrupting interaction strength”.

Variants of B2 are the subject of a further assay. The settings on record: with kr109_human KRTAP10-9, P60411.
In the case of MHGGQGPLLLLLLLAVCLGAQGRNQEERLLADLMQNYDPNLRPAERDSDVVNVSLKLTLTNLISLNEREEALTTNVWIEMQWCDYCLRWDPRDYEGLWVLRVPSTMVWRPDIVLENKSQTYSTNEIDLQLSQEDGQTIEWIFIDPEAFTENGEWAIQHRPAKMLLDPAAPAQEAGHQKVVFYLLIQRKPLFYVINIIAPCVLISSVAILIHFLPAKAGGQKCTVAINVLLAQTVFLFLVAKKVPETSQAVPLISKYLTFLLVVTILIVVNAVVVLNVSLRSPHTHSMARGVRKVFLRLLPQLLRMHVRPLAPAAVQDTQSRLQNGSSGWSITTGEEVALCLPRSELLFQQWQRQGLVAAALEKLEKGPELGLSQFCGSLKQAAPAIQACVEACNLIACARHQQSHFDNGNEEWFLVGRVLDRVCFLAMLSLFICGTAGIFLMAHYNRVPALPFPGDPRPYLPSPD [R86C], the “effect of a mutation on the interaction” value is “disrupting interaction strength”.

Turning to MHGGQGPLLLLLLLAVCLGAQGRNQEERLLADLMQNYDPNLRPAERDSDVVNVSLKLTLTNLISLNEREEALTTNVWIEMQWCDYRLRWDPRDYEGLWVLRVPSTMVWRPDIVLENKSQTYSTNEIDLQLSQEDGQTIEWIFIDPEAFTENGEWAIQHRPAKMLLDPAAPAQEAGHQKVVFYLLIQCKPLFYVINIIAPCVLISSVAILIHFLPAKAGGQKCTVAINVLLAQTVFLFLVAKKVPETSQAVPLISKYLTFLLVVTILIVVNAVVVLNVSLRSPHTHSMARGVRKVFLRLLPQLLRMHVRPLAPAAVQDTQSRLQNGSSGWSITTGEEVALCLPRSELLFQQWQRQGLVAAALEKLEKGPELGLSQFCGSLKQAAPAIQACVEACNLIACARHQQSHFDNGNEEWFLVGRVLDRVCFLAMLSLFICGTAGIFLMAHYNRVPALPFPGDPRPYLPSPD [R187C], the “effect of a mutation on the interaction” value was “disrupting interaction strength”.

MHGGQGPLLLLLLLAVCLGAQGRNQEERLLADLMQNYDPNLRPAERDSDVVNVSLKLTLTNLISLNEREEALTTNVWIEMQWCDYRLRWDPRDYEGLWVLRVPSTMGWRPDIVLENKSQTYSTNEIDLQLSQEDGQTIEWIFIDPEAFTENGEWAIQHRPAKMLLDPAAPAQEAGHQKVVFYLLIQRKPLFYVINIIAPCVLISSVAILIHFLPAKAGGQKCTVAINVLLAQTVFLFLVAKKVPETSQAVPLISKYLTFLLVVTILIVVNAVVVLNVSLRSPHTHSMARGVRKVFLRLLPQLLRMHVRPLAPAAVQDTQSRLQNGSSGWSITTGEEVALCLPRSELLFQQWQRQGLVAAALEKLEKGPELGLSQFCGSLKQAAPAIQACVEACNLIACARHQQSHFDNGNEEWFLVGRVLDRVCFLAMLSLFICGTAGIFLMAHYNRVPALPFPGDPRPYLPSPD [V107G]: the “effect of a mutation on the interaction” value is on record as “disrupting interaction strength”.

The variants in another assay derive from B3. The settings on record: with fam9b_human FAM9B.
Consider C301R, for which the “effect of a mutation on the interaction” value was “with no effect”.

In the case of P111L, the “effect of a mutation on the interaction” value is given as “disrupting interaction strength”.

For the variant I125R, the “effect of a mutation on the interaction” value is reported as “with no effect”.
